Results reported in US20260139017A1, “COMPOSITIONS AND METHODS USING REELIN IN ALZHEIMER'S DISEASE” (The General Hospital Corporation, priority 2022, published 2026).

B1: IL2ss-6xHis-FspCR50-R6-R6 Cterm RELN-H3447R (protein)
chain: MYRMQLLSCIALSLALVTNSGGHHHHHHGGGAAGYYPRFSPFFFLCTHHGELEGDGEQGEVLISLHIAGNPTYYVPGQEYHVTISTSTFFDGLLVTGLYTSTSVQASQSIGGSSAFGFGIMSDHQFGNQFMCSVVASHVSHLPTTNLSFIWIAPPAGTGCVNFMATATHRGQVIFKDALAQQLCEQGAPTDVTVHPHLAEIHSDSIILRDDFDSYHQLQLNPNIWVECNNCETGEQCGAIMHGNAVTFCEPYGPRELITTGLNTTTASVLQFSIGSGSCRFSYSDPSIIVLYAKNNSADWIQLEKIRAPSNVSTIIHILYLPEDAKGENVQFQWKQENLRVGEVYEACWALDNILIINGGSRTLDSRKWLLHPGGTKMPVCGSTGDALVFIEKASTRYVVSTDVAVNEDSFLQIDFAVSCSVTDSCYAIELEYSVDLGLSWHPLVRDCLPTNVECSRYHLQRILVSDTFNKWTRITLPLPPYTRSQATRFRWHQPAPFDKQQTWAIDNVYIGDGCIDMCSGHGRCIQGNCVCDEQWGGLYCDDPETSLPTQLKDNFNRAPSSQNWLTVNGGKLSTVCGAVASGMALHFSGGCSRLLVTVDLNLTNAEFIQFYFMYGCLITPNNRNQGVLLEYSVNGGITWNLLMEIFYDQYSSGGGTLDSRKWLLHPGGTKMPVCGSTGDALVFIEKASTRYVVSTDVAVNEDSFLQIDFAVSCSVTDSCYAIELEYSVDLGLSWHPLVRDCLPTNVECSRYHLQRILVSDTFNKWTRITLPLPPYTRSQATRFRWHQPAPFDKQQTWAIDNVYIGDGCIDMCSGHGRCIQGNCVCDEQWGGLYCDDPETSLPTQLKDNFNRAPSSQNWLTVNGGKLSTVCGAVASGMALHFSGGCSRLLVTVDLNLTNAEFIQFYFMYGCLITPNNRNQGVLLEYSVNGGITWNLLMEIFYDQYSTGGSGGSTRKQNYMMNFSRQHGLRRFYNRRRRSLRRYP
B2: pfcn-huIgG2-C-termH3447R (protein)
chain: MYRMQLLSCIALSLALVTNSAPLERKSSVECPPCPAPPVAGPSVFLFPPKPKDTLMISRTPEVTCVVVDVSHEDPEVQFNWYVDGVEVHNAKTKPREEQFNSTFRVVSVLTVVHQDWLNGKEYKCKVSNKGLPAPIEKTISKTKGQPREPQVYTLPPSREEMTKNQVSLTCLVKGFYPSDIAVEWESNGQPENNYKTTPPMLDSDGSFFLYSKLTVDKSRWQQGNVFSCSVMHEALHNHYTQKSLSLSPGARTSTRKQNYMMNFSRQHGLRRFYNRRRRSLRRYP
B3: Il2ss-flagMini-RELNFspCR50R5-6CtermH3447R (protein)
chain: MYRMQLLSCIALSLALVTNSGGDYKDDDDKTGGAAGYYPRFSPFFFLCTHHGELEGDGEQGEVLISLHIAGNPTYYVPGQEYHVTISTSTFFDGLLVTGLYTSTSVQASQSIGGSSAFGFGIMSDHQFGNQFMCSVVASHVSHLPTTNLSFIWIAPPAGTGCVNFMATATHRGQVIFKDALAQQLCEQGAPTDVTVHPHLAEIHSDSIILRDDFDSYHQLQLNPNIWVECNNCETGEQCGAIMHGNAVTFCEPYGPRELITTGLNTTTASVLQFSIGSGSCRFSYSDPSIIVLYAKNNSADWIQLEKIRAPSNVSTIIHILYLPEDAKGENVQFQWKQENLRVGEVYEACWALDNILIINGSRGGQTNATRFRLWQPYNNGKKEEIWIVDDFIIDGNNVNNPVMLLDTFDFGPREDNWFFYPGGNIGLYCPYSSKGAPEEDSAMVFVSNEVGEHSITTRDLNVNENTIIQFEINVGCSTDSSSADPVRLEFSRDFGATWHLLLPLCYHSSSHVSSLCSTEHHPSSTYYAGTMQGWRREVVHFGKLHLCGSVRFRWYQGFYPAGSQPVTWAIDNVYIGPQCEEMCNGQGSCINGTKCICDPGYSGPTCKISTKNPDFLKDDFEGQLESDRFLLMSGGKPSRKCGILSSGNNLFFNEDGLRMLMTRDLDLSHARFVQFFMRLGCGKGVPDPRSQPVLLQYSLNGGLSWSLLQEFLFSNSSNVGRYIALEIPLKARSGSTRLRWWQPSENGHFYSPWVIDQILIGGNISGNMVLEDDFTTLDSRKWLLHPGGTKMPVCGSTGDALVFIEKASTRYVVSTDVAVNEDSFLQIDFAVSCSVTDSCYAIELEYSVDLGLSWHPLVRDCLPTNVECSRYHLQRILVSDTFNKWTRITLPLPPYTRSQATRFRWHQPAPFDKQQTWAIDNVYIGDGCIDMCSGHGRCIQGNCVCDEQWGGLYCDDPETSLPTQLKDNFNRAPSSQNWLTVNGGKLSTVCGAVASGMALHFSGGCSRLLVTVDLNLTNAEFIQFYFMYGCLITPNNRNQGVLLEYSVNGGITWNLLMEIFYDQYSKPGFVNILLPPDAKEIATRFRWWQPRHDGLDQNDWAIDNVLISGSASTRKQNYMMNFSRQHGLRRFYNRRRRSLRRYP

Legend:
[1] = system: pDAB1 (Tyr232); assay: HRECs treated 5 minutes with HEK 293T-derived mini-RELN media, pDAB1 western blot; assay type: cell-based, human; conditions: HEK 293T-derived media 1:1, 1:4, 1:14, 5 minutes
Procedure: The effect of in vitro treatment with RELN or miniRELN protein was also evaluated. HRECs were cultured in EBM-2 media enriched with EGM-2 Single Quots (Lonza) at 37° C. and 5% CO2 and experimentally tested at passage 7. 24 h prior experiment, cells were plated on a 6-well plate at 500,000 cells/mL. Two hours before the experiment, the cells were washed with PBS to remove residual growth media and then incubated with a starving media including EBM-2, 1% GlutaMax+0,2% Normicin. Treatments was conducted using media derived from HEK 293T cells transiently transfected for 24 h with different mini-RELN constructs in the presence of Lipofectamine 2000. HEK-derived Lipofectamine2000-media was used as negative control. HEK 293T-derived media was tested at different ratio 1:1, 1:4, and 1:14 (Transfected media:Starving media). Each treatment was incubated for 5 minutes and cells were subsequently harvested in lysis buffer was applied constituted of RIPA (Cell signaling), proteases inhibitors (cOmplete™, Mini, EDTA-free Protease Inhibitor Cocktail, Roche), phosphatases inhibitors (PhosSTOP, Roche), 1 μL of proteasome inhibitor MG-132 10 mM, 1% Triton X 100. The lysates were scraped and centrifugated at 15000 rpm for 10 minutes at 4° C. Total protein levels were quantified via BCA assay. […] We detected pDAB1 (Tyr232; 1:1000, rabbit, #3325 Cell signaling), and Beta actin (1:5000, mouse, #66009-1-Ig, Proteintech. Antibodies were diluted using Intercept® (TBS) Blocking Buffer and incubated overnight at 4C under gentle shaking. Prior secondary antibody incubation, membranes were washes 2 times using TBS-T for 10 minutes. As secondary antibodies we used IR Dye 800n CW Goat-anti-Rabbit (925-32211, Licor) and IR Dye 680 CW Goat-anti-Mouse (925-68070, Licor) both diluted 1:10000 in blocking buffer for 1 h at room temperature under gentle shaking. Membranes were washed three times with TBS-T prior IR detection using Odyssey imager. To quantify the results, each band was quantified using ImageJ and data expressed as pDAB1:βActin ratio normalized to the control. […]

[2] = molecular target: T1, NRP1 (Homo sapiens, UniProt O14786); assay: Bio-layer interferometry (BLI) of CTR-RELN-NRP-1 interactions; assay type: binding; conditions: immobilized biotinylated NRP1
T1 construct: purchased R&D 3870-N1-025
T1 sequence (O14786 22-644 isoform O14786-2 limits assumed): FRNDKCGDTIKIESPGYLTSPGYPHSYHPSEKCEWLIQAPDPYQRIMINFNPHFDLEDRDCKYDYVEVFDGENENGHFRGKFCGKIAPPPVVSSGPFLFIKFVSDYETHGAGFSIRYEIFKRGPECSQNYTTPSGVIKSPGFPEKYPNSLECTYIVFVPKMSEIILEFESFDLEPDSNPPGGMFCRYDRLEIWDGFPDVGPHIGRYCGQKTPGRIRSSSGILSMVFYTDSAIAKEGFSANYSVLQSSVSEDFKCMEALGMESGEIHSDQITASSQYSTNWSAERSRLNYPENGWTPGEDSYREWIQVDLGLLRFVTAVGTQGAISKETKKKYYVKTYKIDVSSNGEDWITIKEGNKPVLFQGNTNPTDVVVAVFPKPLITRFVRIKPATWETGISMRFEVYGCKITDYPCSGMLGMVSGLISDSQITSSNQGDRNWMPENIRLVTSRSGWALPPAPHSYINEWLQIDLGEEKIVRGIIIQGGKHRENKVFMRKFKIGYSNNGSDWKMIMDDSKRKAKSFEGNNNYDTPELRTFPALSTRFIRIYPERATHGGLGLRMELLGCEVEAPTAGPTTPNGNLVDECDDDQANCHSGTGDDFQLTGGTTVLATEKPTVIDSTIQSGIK
Procedure: (§1) Bio-layer interferometry (BLI) was additionally used to assess NRP1-protein kinetics at 30° C. and 1000 rpm agitation. 1 mg/mL NRP1 (R&D 3870-N1-025) was biotinylated at a 1:2 molar ratio, desalted, and immobilized on the SA biosensor tip (Pall ForteBio) surface. This was followed by 1) 180 seconds baseline buffer diluent, 2) loading of the ligand (NRP1), 3) 180 seconds baseline buffer diluent, 4) 240 seconds association (analyte), and 5) 300 seconds disassociation in assay buffer. Assay buffer: SD Buffer (pH7.4 PBS, 0.05% tween20, 0.01% BSA).
The experimental data were fit with the 1:1 binding model and analyzed with global fitting using Octet Data Analysis software to calculate KD.
as §1, with “was” for “was additionally”, “agitation using previously published methods.” for “agitation.”

Row | Molecule | pDAB1 / Dab1 signaling activation [1] | ka [2] [M⁻¹ s⁻¹] | kd [2] [s⁻¹]
1 | B1 | efficacy |  | 
2 | B2 |  | 12900 | 0.00102
3 | B3 | more robust compared to controls and compared to 233A |  | 
